Data published in patent US20240218065A1 (SHENGHE CHINA BIOPHARMACEUTICAL, published 2024).
Like-named read-outs stand apart in the source and are kept apart here.

T1: Human-NKP30-His (Kactus, cat: NKP-HM430) (human, UniProt O14931 19-138, limits assumed)
T1 construct: also called NKP30 protein; NKP30-his protein; not shown: His tag
T1 sequence (looked up): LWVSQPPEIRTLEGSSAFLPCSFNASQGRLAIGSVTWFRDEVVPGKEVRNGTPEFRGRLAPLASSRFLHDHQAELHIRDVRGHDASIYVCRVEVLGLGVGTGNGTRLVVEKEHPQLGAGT


Key:
[1] = molecular target: T2, Human-GPC3-His (human, UniProt P51654 25-559, limits assumed); assay: ELISA: Human-GPC3-His coated at 0.5 µg/mL, antibody titrated 3-fold from 10 µg/mL, HRP goat anti-human IgG-Fc, OD450-OD570
T2 construct: Coated on the ELISA plate; also called GPC-3 protein; GPC3 protein; not shown: His tag
T2 sequence (P51654 25-559 limits assumed): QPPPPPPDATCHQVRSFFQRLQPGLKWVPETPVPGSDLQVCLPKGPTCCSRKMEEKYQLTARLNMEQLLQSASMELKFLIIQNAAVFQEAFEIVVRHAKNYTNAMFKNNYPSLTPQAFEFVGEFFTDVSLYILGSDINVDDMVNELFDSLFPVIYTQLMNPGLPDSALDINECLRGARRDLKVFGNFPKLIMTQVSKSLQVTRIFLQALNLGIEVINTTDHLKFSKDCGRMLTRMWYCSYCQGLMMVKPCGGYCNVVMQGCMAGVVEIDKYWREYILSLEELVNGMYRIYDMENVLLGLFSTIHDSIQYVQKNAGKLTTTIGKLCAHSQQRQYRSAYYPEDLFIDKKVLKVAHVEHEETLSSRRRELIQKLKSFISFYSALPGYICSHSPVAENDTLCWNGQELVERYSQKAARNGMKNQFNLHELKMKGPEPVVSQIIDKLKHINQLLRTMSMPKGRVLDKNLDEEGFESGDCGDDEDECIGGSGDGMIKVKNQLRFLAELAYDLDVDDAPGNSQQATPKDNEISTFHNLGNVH
Method: (§1) Human-GPC3-His was diluted to 0.5 μg/mL with PBS buffer at pH 7.4, added into the 96-well ELISA plate at 100 μL per well, coated overnight at 4° C., and blocked with 1% BSA blocking solution for 1 hour. The plate was washed 3 times with PBST, and the constructed antibody was diluted to 10 μg/mL with 0.5% BSA sample diluent as the starting concentration, and then diluted by 3-fold gradient (11 gradients in total) and incubated at 37° C. for 1 h at 100 μL per well. The plate was washed 3 times with PBST, and then HRP-labelled goat anti-human IgG-Fc was diluted with the sample diluent at 1:20000. 100 μL was added into each well, and incubated at room temperature for 1 hour. A negative control (blank well and IgG1 isotype control) and a positive control were set, and the positive control was a GPC-3 and CD3 bispecial antibody from the literature Hs, A, et al. “Engineering a bispecific antibody with a common light chain: Identification and optimization of an anti-CD3 epsilon and anti-GPC3 bispecific antibody, ERY974.” Methods 154 (2019): 10-20. (The GPC-3 and CD3 bispecial antibody sequence consists of SEQ ID No. 22, SEQ ID No. 23, and SEQ ID No. 24). The plate was washed 4 times with PBST, and 100 μL of TMB substrate was added into each well, and incubated at room temperature without light for 10 minutes. 100 μL of 1 M HCl solution was added into each well to terminate the color development reaction. The absorbance value of each well in the 96-well plate was determined by selecting the wavelength of 450 nm and the reference wavelength of 570 nm on a multifunctional enzyme marker, and the absorbance value (OD)=OD₄₅₀ₙₘ−OD₅₇₀ₙₘ. The logarithm of the concentration of the constructed antibody was taken as the abscissa, and the measured absorbance value of each well was taken as the ordinate, and the Sigmoidaldose-response (Variable Slope) method (GraphPad Prism software, GraphPad Software, San Diego, California) was selected for nonlinear regression to obtain the binding curve of the target antibody to the GPC-3 protein.

[2] = molecular target: T1, Human-NKP30-His (Kactus, cat: NKP-HM430); assay: ELISA: Human-NKP30-His coated, antibody titrated 3-fold from 10 µg/mL, HRP goat anti-human IgG-Fc, OD450-OD570
Method: (§2) Human-NKP30-His (Kactus, cat: NKP-HM430) was diluted to […] with PBS buffer at pH 7.4, added into the 96-well ELISA plate at 100 μL per well, coated overnight at 4° C., and blocked with 1% BSA blocking solution for 1 hour. The plate was washed 3 times with PBST, and the constructed antibodies were diluted to 10 μg/mL with 0.5% BSA sample diluent as the starting concentration, and then diluted by 3-fold gradient (11 gradients in total). A negative control (blank well and IgG1 isotype control) and a positive control were set, and the positive control was a NKP30 humanized antibody (sequence shown in SEQ ID No. 28), and incubated at 37° C. for 1 h at 100 μL per well. The plate was washed 3 times with PBST, and then HRP-labelled goat anti-human IgG-Fc was diluted with the sample diluent at 1:20000. 100 μL was added into each well, and incubated at room temperature for 1 hour. The plate was washed 4 times with PBST, and 100 μL of TMB substrate was added into each well, and incubated at room temperature without light for 10 minutes. 100 μL of 1 M HCl solution was added into each well to terminate the color development reaction. The absorbance value of each well in the 96-well plate was determined by selecting the wavelength of 450 nm and the reference wavelength of 570 nm on a multifunctional enzyme marker, and the absorbance value (OD)=OD₄₅₀ₙₘ−OD₅₇₀ₙₘ. The logarithm of the concentration of the constructed antibody was taken as the abscissa, and the measured absorbance value of each well was taken as the ordinate, and the Sigmoidaldose-response (Variable Slope) method (GraphPad Prism software, GraphPad Software, San Diego, California) was selected for nonlinear regression to obtain the binding curve of the target antibody to NKP30.

[3] = molecular target: T2, Human-GPC3-His; assay: ELISA: Human-GPC3-His coated at 0.5 µg/mL, antibody titrated 3-fold from 10 µg/mL, HRP goat anti-human IgG-Fc, OD450-OD570; remark: listed apart in the source
Method: as §1

[4] = molecular target: T1, Human-NKP30-His (Kactus, cat: NKP-HM430); assay: ELISA: Human-NKP30-His coated, antibody titrated 3-fold from 10 µg/mL, HRP goat anti-human IgG-Fc, OD450-OD570; remark: listed apart in the source
Method: as §2

Binder	EC50 (read off the curve) [1] [mg/L]	EC50 (read off the curve) [2] [mg/L]	EC50 (read off the curve) [3] [mg/L]	EC50 (read off the curve) [4] [mg/L]
GN15-C (bispecific antibody, human IgG1, kappa, Trifunctional antibody against GPC-3 and NKP30 with IL-15 and IL-15Rα sushi between CH1 and CH2; also called constructed antibody GN15-C; multifunctional antibody) light: DVVMTQSPLSLPVTPGEPASISCRSSQSLVHSNRNTYLHWYLQKPGQSPQLLIYKVSNRFSGVPDRFSGSGSGTDFTLKISRVEAEDVGVYYCSQNTHVPPTFGQGTKLEIKRTVAAPSVFIFPPSDEQLKSGTASVVCLLNNFYPREAKVQWKVDNALQSGNSQESVTEQDSKDSTYSLSSTLTLSKADYEKHKVYACEVTHQGLSSPVTKSFNRGECGGGGSGGGGSGGGGSGGGGSEVQLVESGGGLVQPGGSLRLSCAASGITFSRSVMGWFRQAPGKLRELVAGITSDDNTDYADSVKGRFTISRDNSKNTLYLQMNSLRAEDTAVYYCNILPDSRLGWGQGTLVTVSS heavy 1: not shown heavy 2: QVQLVQSGAEVKKPGASVKVSCKASGYTFTDYEMHWVRQAPGQGLEWMGALDPKTGDTAYSQKFKGRVTLTADKSTSTAYMELSSLTSEDTAVYYCTRFYSYTYWGQGTLVTVSSASTKGPSVFPLAPSSKSTSGGTAALGCLVKDYFPEPVTVSWNSGALTSGVHTFPAVLQSSGLYSLSSVVTVPSSSLGTQTYICNVNHKPSNTKVDKKVEPKSCDKTHTCPPCPGGGGSGGGGSPALLLLLLLRPPATRGITCPPPMSVEHADIWVKSYSLYSRERYICNSGFKRKAGTSSLTECVLNKATNVAHWTTPSLKCIRDPALVHQRPAPPSTVTTAGVTPQPESLSPSGKEGGGGSGGGGSAPELLGGPSVFLFPPKPKDTLMISRTPEVTCVVVDVSHEDPEVKFNWYVDGVEVHNAKTKPREEQYNSTYRVVSVLTVLHQDWLNGKEYKCKVSNKALPAPIEKTISKAKGQPREPQVYTLPPSRDELTKNQVSLTCLVKGFYPSDIAVEWESNGQPENNYKTTPPVLDSDGSFFLASKLTVDKSRWQQGNVFSCSVMHEALHNHYTQKSLSLSPGK	~0.03	~0.05		
GN15-B (bispecific antibody, human IgG1, kappa, Trifunctional antibody against GPC-3 and NKP30 with IL-15 and IL-15Rα sushi between CH1 and CH2; also called constructed antibody GN15-B; multifunctional antibody) light: DVVMTQSPLSLPVTPGEPASISCRSSQSLVHSNRNTYLHWYLQKPGQSPQLLIYKVSNRFSGVPDRFSGSGSGTDFTLKISRVEAEDVGVYYCSQNTHVPPTFGQGTKLEIKRTVAAPSVFIFPPSDEQLKSGTASVVCLLNNFYPREAKVQWKVDNALQSGNSQESVTEQDSKDSTYSLSSTLTLSKADYEKHKVYACEVTHQGLSSPVTKSFNRGEC heavy 1: not shown heavy 2: EVQLVESGGGLVQPGGSLRLSCAASGITFSRSVMGWFRQAPGKLRELVAGITSDDNTDYADSVKGRFTISRDNSKNTLYLQMNSLRAEDTAVYYCNILPDSRLGWGQGTLVTVSSGGGGSGGGGSGGGGSQVQLVQSGAEVKKPGASVKVSCKASGYTFTDYEMHWVRQAPGQGLEWMGALDPKTGDTAYSQKFKGRVTLTADKSTSTAYMELSSLTSEDTAVYYCTRFYSYTYWGQGTLVTVSSASTKGPSVFPLAPSSKSTSGGTAALGCLVKDYFPEPVTVSWNSGALTSGVHTFPAVLQSSGLYSLSSVVTVPSSSLGTQTYICNVNHKPSNTKVDKKVEPKSCDKTHTCPPCPGGGGSGGGGSPALLLLLLLRPPATRGITCPPPMSVEHADIWVKSYSLYSRERYICNSGFKRKAGTSSLTECVLNKATNVAHWTTPSLKCIRDPALVHQRPAPPSTVTTAGVTPQPESLSPSGKEGGGGSGGGGSAPELLGGPSVFLFPPKPKDTLMISRTPEVTCVVVDVSHEDPEVKFNWYVDGVEVHNAKTKPREEQYNSTYRVVSVLTVLHQDWLNGKEYKCKVSNKALPAPIEKTISKAKGQPREPQVYTLPPSRDELTKNQVSLTCLVKGFYPSDIAVEWESNGQPENNYKTTPPVLDSDGSFFLASKLTVDKSRWQQGNVFSCSVMHEALHNHYTQKSLSLSPGK	~0.03	~0.03		

Results, then the binder that gave them:

EC50 (read off the curve) [1] [mg/L]	EC50 (read off the curve) [2] [mg/L]	EC50 (read off the curve) [3] [mg/L]	EC50 (read off the curve) [4] [mg/L]	Binder
	~0.03	~0.04		GN15-D (bispecific antibody, human IgG1, kappa, Trifunctional antibody against GPC-3 and NKP30 with IL-15 and IL-15Rα sushi between CH1 and CH2; also called constructed antibody GN15-D; multifunctional antibody) light: DVVMTQSPLSLPVTPGEPASISCRSSQSLVHSNRNTYLHWYLQKPGQSPQLLIYKVSNRFSGVPDRFSGSGSGTDFTLKISRVEAEDVGVYYCSQNTHVPPTFGQGTKLEIKRTVAAPSVFIFPPSDEQLKSGTASVVCLLNNFYPREAKVQWKVDNALQSGNSQESVTEQDSKDSTYSLSSTLTLSKADYEKHKVYACEVTHQGLSSPVTKSFNRGEC heavy 1: not shown heavy 2: QVQLVQSGAEVKKPGASVKVSCKASGYTFTDYEMHWVRQAPGQGLEWMGALDPKTGDTAYSQKFKGRVTLTADKSTSTAYMELSSLTSEDTAVYYCTRFYSYTYWGQGTLVTVSSASTKGPSVFPLAPSSKSTSGGTAALGCLVKDYFPEPVTVSWNSGALTSGVHTFPAVLQSSGLYSLSSVVTVPSSSLGTQTYICNVNHKPSNTKVDKKVEPKSCDKTHTCPPCPGGGGSGGGGSPALLLLLLLRPPATRGITCPPPMSVEHADIWVKSYSLYSRERYICNSGFKRKAGTSSLTECVLNKATNVAHWTTPSLKCIRDPALVHQRPAPPSTVTTAGVTPQPESLSPSGKEGGGGSGGGGSAPELLGGPSVFLFPPKPKDTLMISRTPEVTCVVVDVSHEDPEVKFNWYVDGVEVHNAKTKPREEQYNSTYRVVSVLTVLHQDWLNGKEYKCKVSNKALPAPIEKTISKAKGQPREPQVYTLPPSRDELTKNQVSLTCLVKGFYPSDIAVEWESNGQPENNYKTTPPVLDSDGSFFLASKLTVDKSRWQQGNVFSCSVMHEALHNHYTQKSLSLSPGKGGGGSGGGGSGGGGSGGGGSEVQLVESGGGLVQPGGSLRLSCAASGITFSRSVMGWFRQAPGKLRELVAGITSDDNTDYADSVKGRFTISRDNSKNTLYLQMNSLRAEDTAVYYCNILPDSRLGWGQGTLVTVSS
		~0.06	~0.04	GN15-E (bispecific antibody, human IgG1, kappa, Trifunctional antibody against GPC-3 and NKP30 with IL-15 and IL-15Rα sushi between CH1 and CH2; also called constructed antibody GN15-E; multifunctional antibody) light 1: EVQLVESGGGLVQPGGSLRLSCAASGITFSRSVMGWFRQAPGKLRELVAGITSDDNTDYADSVKGRFTISRDNSKNTLYLQMNSLRAEDTAVYYCNILPDSRLGWGQGTLVTVSSGGGGSGGGGSGGGGSQVQLVQSGAEVKKPGASVKVSCKASGYTFTDYEMHWVRQAPGQGLEWMGALDPKTGDTAYSQKFKGRVTLTADKSTSTAYMELSSLTSEDTAVYYCTRFYSYTYWGQGTLVTVSSRTVAAPSVFIFPPSDEQLKSGTASVVCLLNNFYPREAKVQWKVDNALQSGNSQESVTEQDSKDSTYSLSSTLTLSKADYEKHKVYACEVTHQGLSSPVTKSFNRGEC heavy 1: not shown heavy 2: QVQLVQSGAEVKKPGASVKVSCKASGYTFTDYEMHWVRQAPGQGLEWMGALDPKTGDTAYSQKFKGRVTLTADKSTSTAYMELSSLTSEDTAVYYCTRFYSYTYWGQGTLVTVSSASTKGPSVFPLAPSSKSTSGGTAALGCLVKDYFPEPVTVSWNSGALTSGVHTFPAVLQSSGLYSLSSVVTVPSSSLGTQTYICNVNHKPSNTKVDKKVEPKSCDKTHTCPPCPGGGGSGGGGSPALLLLLLLRPPATRGITCPPPMSVEHADIWVKSYSLYSRERYICNSGFKRKAGTSSLTECVLNKATNVAHWTTPSLKCIRDPALVHQRPAPPSTVTTAGVTPQPESLSPSGKEGGGGSGGGGSAPELLGGPSVFLFPPKPKDTLMISRTPEVTCVVVDVSHEDPEVKFNWYVDGVEVHNAKTKPREEQYNSTYRVVSVLTVLHQDWLNGKEYKCKVSNKALPAPIEKTISKAKGQPREPQVYTLPPSRDELTKNQVSLTCLVKGFYPSDIAVEWESNGQPENNYKTTPPVLDSDGSFFLASKLTVDKSRWQQGNVFSCSVMHEALHNHYTQKSLSLSPGK light 2: DVVMTQSPLSLPVTPGEPASISCRSSQSLVHSNRNTYLHWYLQKPGQSPQLLIYKVSNRFSGVPDRFSGSGSGTDFTLKISRVEAEDVGVYYCSQNTHVPPTFGQGTKLEIKRTVAAPSVFIFPPSDEQLKSGTASVVCLLNNFYPREAKVQWKVDNALQSGNSQESVTEQDSKDSTYSLSSTLTLSKADYEKHKVYACEVTHQGLSSPVTKSFNRGEC
